In patent US7423017B2, “Method for treating cartilage disorders” (Genentech, Inc., priority 1997, dated 2008):

Assays:
IGFBP-1 [1] = target: T1, IGFBP-1 (Homo sapiens, UniProt P08833); experiment: competitive phage ELISA of IGF-1 mutants, IGFBP-1; assay type: binding; parameters: made in house; host or cells: CHO cells; conditions: for IC50: phage display, soluble IGFBP-1 competitor; for increase in IGFBP-1 binding: phage ELISA
T1 sequence (P08833 26-259): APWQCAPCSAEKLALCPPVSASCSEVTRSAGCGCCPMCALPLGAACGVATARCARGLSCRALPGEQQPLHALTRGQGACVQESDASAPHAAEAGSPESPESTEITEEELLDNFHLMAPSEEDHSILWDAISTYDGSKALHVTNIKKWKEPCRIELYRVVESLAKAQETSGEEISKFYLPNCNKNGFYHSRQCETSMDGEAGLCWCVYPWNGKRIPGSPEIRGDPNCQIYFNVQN
Procedure: (§1) An alanine-scanning mutagenesis approach (Cunningham and Wells, Science, 244: 1081-1085 (1989); U.S. Pat. No. 5,834,250) was used to remove that portion of each side chain of IGF-1 beyond the beta carbon. The contribution of these atoms to the free energy of binding of the IGF-1 analog to IGFBP-1 or to IGFBP-3 was then assessed by competitive phage ELISA. In this assay, IGFBP-1 or IGFBP-3 is used to inhibit IGF-phage mutants from binding to an IGFBP-1- or IGFBP-3-coated immunosorbant plate.
(§2) Immunosorbent plates (Nunc, MAXISORP™, 96 wells) were coated with 100 μl/well of 1 μg/ml IGFBP-1 or IGFBP-3 in PBS buffer pH 7.2 at 4° C. overnight. The plates were then blocked with 0.5% TWEEN 20™/PBS (also used as binding buffer) for 2 hours at room temperature (proteinaceous blocking agents like bovine serum albumin were avoided to prevent potential IGF or IGFBP contamination). E. coli cells (XL1-Blue, Stratagene) freshly transformed with phagemid vector were grown overnight in 5 mL 2YT medium (Sambrook et al., supra) in the presence of M13-VCS helper phage (Stratagene). Phage particles were harvested and resuspended in PBS buffer as described in Lowman, H. B., “Phage Display of Peptide Libraries on Protein Scaffolds,” in Cabilly, S. (ed.), Combinatorial Peptide Library Protocols (Humana Press Inc.: Totowa, N.J., 1998), pp. 249-264. Then phage concentrations were normalized to yield a maximal ELISA signal of 0.2-0.4 for each mutant (Lowman, in Cabilly, S. (ed.), supra). Threefold serial dilutions of soluble competitor were prepared on non-absorbent microtiter plates (Nunc, F, 96 wells) with binding buffer (0.5% TWEEN 20™/PBS) containing phage at the previously determined concentrations. The dilution range of competitor protein extended over six orders of magnitude, starting at 5 μM for IGFBP-1 and 500 nM for IGFBP-3. After blocking, the plates containing immobilized target were washed with 0.05% TWEEN™/PBS buffer and subsequently incubated with 80 μl/well of the premixed phage-competitor solutions for 1 hour at room temperature. After washing, bound phage was detected with 80 μl/well of a solution containing a primary rabbit anti-phage polyclonal antibody and a secondary goat anti-rabbit monoclonal antibody-horseradish peroxidase conjugate in 0.5% TWEEN 20™/PBS. o-Phenylenediamine (Sigma) and tetramethylbenzidine (Kirkegaard and Perry) were used as chromogenic substrates, resulting in product detection at 492 and 450 nm, respectively. IC50 values were determined by fitting the binding data to a generic saturation curve (Lowman, in Cabilly, S. (ed.), supra). At least two individual clones of each IGF-1 mutant were assayed. Numbers in Table XIII represent mean±standard deviation of individually assessed IC50 values.

IGFBP-3 = target: T2, IGFBP-3 (Homo sapiens, UniProt P17936); experiment: competitive phage ELISA of IGF-1 mutants, IGFBP-3; assay type: binding; conditions: for IC50: phage display, soluble IGFBP-3 competitor; for larger effects on IGFBP-3 than on IGFBP-1 binding / increase in IGFBP-3 binding: phage ELISA
T2 construct: made in house
Procedure: as §1, §2

IGFBP-1 [2] = experiment: competitive phage ELISA of IGF-1 mutants, IGFBP-1; assay type: binding, human; conditions: relative IC50 IGFBP-1/relative IC50 IGFBP-3
Procedure: as §1, §2

[3] = IC50 mut/IC50 G1S-A70V, listed as des(1-2)-IGF-1

T2 sequence (P17936 28-291): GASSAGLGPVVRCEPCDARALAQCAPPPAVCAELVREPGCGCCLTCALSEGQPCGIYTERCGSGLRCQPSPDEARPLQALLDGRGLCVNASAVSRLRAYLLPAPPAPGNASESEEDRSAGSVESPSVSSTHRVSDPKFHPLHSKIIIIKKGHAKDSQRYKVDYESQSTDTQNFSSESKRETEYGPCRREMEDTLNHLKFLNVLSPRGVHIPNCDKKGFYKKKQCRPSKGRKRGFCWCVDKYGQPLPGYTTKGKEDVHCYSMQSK

Row | IC50 (IGFBP-1 [1]) | IC50 (IGFBP-3) | larger effects on IGFBP-3 than on IGFBP-1 binding (IGFBP-3) | IGFBP-1 Relative IC50 (IGFBP-1 [1]; [3]) | IGFBP-3 relative IC50 (IGFBP-3; [3]) | increase in IGFBP-3 binding (IGFBP-3) | increase in IGFBP-1 binding (IGFBP-1 [1]) | Substance | relative specificity (IGFBP-1 [2])
1 | 9.1 ± 1.8 nM | 0.9 ± 0.07 nM | – | – | – | – | – | N26A: IGF-1 single alanine mutant | 0.9
2 | 15.3 ± 2.8 nM | 1.05 ± 0.11 nM | – | – | – | – | – | D53A: IGF-1 single alanine mutant | 1.6
3 | 278 ± 86 nM | 1.05 ± 0.08 nM | – | – | – | – | – | E3A: IGF-1 single alanine mutant | –
4 | 9 ± 2.3 nM | 0.66 ± 0.03 nM | – | – | – | – | – | R55A: IGF-1 single alanine mutant | 1.2
5 | 13.3 ± 2.9 nM | 2.53 ± 0.76 nM | about 2 fold | – | – | – | – | Y24A: IGF-1 single alanine mutant | 0.5
6 | 7.9 ± 2.1 nM | 0.94 ± 0.28 nM | – | – | – | – | – | E46A: IGF-1 single alanine mutant | 0.8
7 | – | – | – | no difference in affinity | no difference in affinity | – | – | Des(1-2)-IGF: IGF-1 mutant lacking residues 1 and 2 | 0.9
8 | 15.9 ± 2.8 nM | 2.07 ± 0.11 nM | – | – | – | – | – | G22A: IGF-1 single alanine mutant | 0.7
9 | 311 ± 87 nM | 3.55 ± 0.33 nM | – | – | – | – | – | L10A: IGF-1 single alanine mutant | –
10 | 13.1 ± 1.8 nM | 0.74 ± 0.14 nM | – | – | – | – | – | M59A: IGF-1 single alanine mutant | 1.6
11 | 12.8 ± 2.3 nM | 0.71 ± 0.62 nM | – | – | – | – | – | S69A: IGF-1 single alanine mutant | 1.3
12 | 7.3 ± 2.4 nM | 1.23 ± 0.16 nM | about 2 fold | – | – | – | – | T29A: IGF-1 single alanine mutant | 0.5
13 | – | – | – | – | – | – | – | V70A: single mutant of G1S-A70V IGF-1 restoring A70 | 2.6
14 | 12.1 ± 3.3 nM | 0.93 ± 0.03 nM | – | – | – | – | – | L64A: IGF-1 single alanine mutant | 1.2
15 | 11 ± 2.3 nM | 0.9 ± 0.28 nM | – | – | – | – | – | G19A: IGF-1 single alanine mutant | 1.1
16 | 9.5 ± 0.7 nM | 1.65 ± 0.21 nM | about 2 fold | – | – | – | – | S34A: IGF-1 single alanine mutant | 0.5
17 | 6.6 ± 1.8 nM | 0.52 ± 0.01 nM | – | – | – | – | – | Y60A: IGF-1 single alanine mutant | 1.2
18 | 13.7 ± 3.1 nM | 0.43 ± 0.06 nM | – | – | – | approximately 2 fold | – | T41A: IGF-1 single alanine mutant | 2.9
19 | 4.7 ± 0.7 nM | 0.69 ± 0.21 nM | about 2 fold | – | – | – | approximately 2 fold | D45A: IGF-1 single alanine mutant | 0.6
20 | > 1000 nM | 4.58 ± 0.28 nM | – | – | – | – | – | G7A: IGF-1 single alanine mutant | –
21 | 42.9 ± 3.2 nM | 3.67 ± 1.02 nM | – | – | – | – | – | V17A: IGF-1 single alanine mutant | 1.1
22 | 12.8 ± 0.1 nM | 0.66 ± 0.35 nM | – | – | – | – | – | K27A: IGF-1 single alanine mutant | 1.8
23 | 55.3 ± 11.6 nM | 1.53 ± 0.22 nM | – | – | – | – | – | L5A: IGF-1 single alanine mutant | 3.3
24 | 11.9 ± 1.8 nM | 1.03 ± 0.47 nM | – | – | – | – | – | E58A: IGF-1 single alanine mutant | 1.1
25 | 12.3 ± 0.1 nM | 0.75 ± 0.08 nM | – | – | – | – | – | R37A: IGF-1 single alanine mutant | 1.5
26 | – | – | – | – | – | – | – | S1G: single mutant of G1S-A70V IGF-1 restoring G1 | 1.0

Row | IC50 (IGFBP-1 [1]) | IC50 (IGFBP-3) | larger effects on IGFBP-3 than on IGFBP-1 binding (IGFBP-3) | IGFBP-1 Relative IC50 (IGFBP-1 [1]; [3]) | IGFBP-3 relative IC50 (IGFBP-3; [3]) | increase in IGFBP-3 binding (IGFBP-3) | increase in IGFBP-1 binding (IGFBP-1 [1]) | Substance | relative specificity (IGFBP-1 [2])
27 | 11.7 ± 0.6 nM | 0.47 ± 0.01 nM | – | – | – | approximately 2 fold | – | S35A: IGF-1 single alanine mutant | 2.3
28 | 7.1 ± 1.6 nM | 0.58 ± 0.01 nM | – | – | – | – | – | R21A: IGF-1 single alanine mutant | 1.1
29 | 21.8 ± 5.6 nM | 1.78 ± 0.56 nM | – | – | – | – | – | L57A: IGF-1 single alanine mutant | 1.1
30 | 11 ± 3.7 nM | 0.81 ± 0.18 nM | – | – | – | – | – | P2A: IGF-1 single alanine mutant | 1.2
31 | 15.7 ± 3.4 nM | 0.53 ± 0.2 nM | – | – | – | – | – | G42A: IGF-1 single alanine mutant | 2.7
32 | 8.4 ± 4.1 nM | 1.11 ± 0.06 nM | – | – | – | – | – | D20A: IGF-1 single alanine mutant | 0.7
33 | 10.2 ± 0.9 nM | 0.56 ± 0.03 nM | – | – | – | – | – | Q40A: IGF-1 single alanine mutant | 1.7
34 | 13.1 ± 1.8 nM | 1 ± 0.19 nM | – | – | – | – | – | R56A: IGF-1 single alanine mutant | 1.2
35 | 6.8 ± 0.5 nM | 0.73 ± 0.1 nM | – | – | – | – | – | Y31A: IGF-1 single alanine mutant | 0.9
36 | 12.4 ± 0.6 nM | 0.69 ± 0.05 nM | – | – | – | – | – | K65A: IGF-1 single alanine mutant | 1.6
37 | 13.4 ± 0.4 nM | 0.65 ± 0.35 nM | – | – | – | – | – | S51A: IGF-1 single alanine mutant | 1.9
38 | 7.1 ± 1.7 nM | 0.58 ± 0.11 nM | – | – | – | – | – | G30A: IGF-1 single alanine mutant | 1.1
39 | 36.7 ± 1.1 nM | 0.9 ± 0.04 nM | – | – | – | – | – | L14A: IGF-1 single alanine mutant | 3.7
40 | 10.9 ± 1.3 nM | 0.76 ± 0.28 nM | – | – | – | – | – | G32A: IGF-1 single alanine mutant | 1.3
41 | 31.3 ± 4.1 nM | 1.17 ± 0.07 nM | – | – | – | – | – | I43A: IGF-1 single alanine mutant | 2.4
42 | 4.3 ± 0.8 nM | 1.49 ± 0.38 nM | about 2 fold | – | – | – | approximately 2 fold | D12A: IGF-1 single alanine mutant | 0.3
43 | 23.1 ± 12 nM | 1.83 ± 0.91 nM | – | – | – | – | – | L54A: IGF-1 single alanine mutant | 1.2
44 | 9.3 ± 1.4 nM | 1.41 ± 0.05 nM | – | – | – | – | – | P28A: IGF-1 single alanine mutant | 0.6
45 | > 1000 nM | > 100 nM | – | – | – | – | – | P63A: IGF-1 single alanine mutant | –
46 | 10.5 ± 2.8 nM | 0.76 ± 0.23 nM | – | – | – | – | – | K68A: IGF-1 single alanine mutant | 1.3
47 | 10.9 ± 1.9 nM | 2.18 ± 0.01 nM | about 2 fold | – | – | – | – | F23A: IGF-1 single alanine mutant | 0.5
48 | 18.8 ± 5.4 nM | 1.03 ± 0.06 nM | – | – | – | – | – | V44A: IGF-1 single alanine mutant | 1.7
49 | 8.6 ± 0.6 nM | 1.32 ± 0.3 nM | about 2 fold | – | – | – | – | E9A: IGF-1 single alanine mutant | 0.6
50 | 9.4 ± 3.2 nM | 0.57 ± 0.12 nM | – | – | – | – | – | P66A: IGF-1 single alanine mutant | 1.5
51 | 9.1 ± 1 nM | 1.01 ± 0.24 nM | – | – | – | – | – | S33A: IGF-1 single alanine mutant | 0.8
52 | 13.9 ± 0.9 nM | 1.26 ± 0.41 nM | – | – | – | – | – | Q15A: IGF-1 single alanine mutant | 1.0
